B1: HK CV07-209 (antibody, V domains shown)
VH: QVQLVESGGGLVKPGGSLRLSCAASGFTFSDYYMSWIRQAPGKGLEWVSYISSSVSTIYYADSVKGRFTISRDNAKNSLYLQMNSLRAEDTAVYYCARDGVIPPRFDYWGQGTLVTVSS
VL: not shown
B2: HL CV07-222 (antibody, V domains shown)
VH: QVQLVQSGAEVKKPGASVKVSCKASGYTFTDYYVHWVRQAPGQGLEWMGWINPISGGTNYAQKFQGRVTMTRDTSISTAYMELSRLRSDDTAVYYCARGPYYYDSSGSLGAFDIWGQGTMVTVSS
VL: QSALTQPASVSGSPGQSITISCTGTSSDVGSYNLVSWYQQHPGKAPKLMIYEGSKRPSGVSNRFSGSKSGNTASLTISGLQAEDEAHYYCCSYAGGSTSYVFGTGTKVTVLG
B3: HK CV38-221 (antibody, V domains shown)
VH: EVQLVESGGGLVQPGGSLRLSCAASGITVSSNYMIWVRQAPGKGLEWVSVIYSGGSTYYADSVKGRFTISRDNSKNTLYLQMNSLRAEDTAVYYCARGFGDYYFDYWGQGTLVTVSS
VL: EIVLTQSPGTLSLSPGERATLSCRASQSVSSSYFAWYQQKPGQAPRLLIYGASSRATGIPDRFSGSGSGTDFTLTISRLEPEDFAVYYCQQLYTFGQGTKLEIKR
B4: HK CV07-287 (antibody, V domains shown)
VH: QVQLVQSGPEVKKPGTSVKVSCKASGFTFTSSAMQWVRQARGQRLEWIGWIVVGSGNTNYAQKFQERVTITRDMSTSTAYMELSSLRSEDTAVYYCAAPYCSSTNCYDAFDIWGQGTMVTVSS
VL: not shown
B5: HL CV07-255 (antibody, V domains shown)
VH: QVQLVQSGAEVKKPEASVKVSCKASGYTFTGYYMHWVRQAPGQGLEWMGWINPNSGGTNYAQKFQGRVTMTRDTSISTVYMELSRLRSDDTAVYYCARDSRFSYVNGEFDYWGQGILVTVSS
VL: QSALTQPASVSGSPGQSITISCTRTSSDVESYNLVSWYQQHPGKAPKLMIYEVSKRPSGISNRFSGSKSGNTASLTISGLQAEDEADYYCCSYAGHSTWVFGGGTELTVLG
B6: HL CV07-262 (antibody, V domains shown)
VH: QVQLVQSGAEVKKPGASVKVSCKASGYTFTGYYMHWVRQAPGQGLEWMGWINPNSGGTNYAQTFQGRVTMTRDTSITTTYMELSRLRSDDTAVYYCARVGWYDFGTPGDYYYYYGMDVWGQGTTVTVSS
VL: QSALTQPASVSGSPGQSITISCTGTSSDVGSYNLVSWYQQHPGKAPKLMIYEGSKRPSGVSNRFSGSKSGNTASLTISGLQAEDEADYFCCSYAGTSTFVFGTGTKVTVLG
B7: HK CV38-139 (antibody, V domains shown)
VH: EVQLVESGGGLVQPGGSLRLSCAASGFTVSSNYMSWVRQAPGKGLEWVSVFYSGGSTFYADSVKGRFTISRDNSKNTLYLQMNSLRAEDTAVYYCARGHYDLFDYWGQGTLVTVSS
VL: DIQLTQSPSFLSASVGDRVTITCRASQGISSYLAWYQQKPGKAPKLLIYAASTLQSGVPSRFSGSGSGTEFTLTISSLQPEDFATYYCQQLNSYPPGTFGPGTKVDIKR
B8: HK CV38-113 (antibody, V domains shown)
VH: EVQLVESGGGLVQPGGSLRLSCAASGFTVSSNYMSWVRQAPGKGLEWVSVIYSGGSTYYADSVKGRFTISRHNSKNTLYLQMNSLRAEDTAVYFCARGGRLADAAGDYWGQGTLVTVSS
VL: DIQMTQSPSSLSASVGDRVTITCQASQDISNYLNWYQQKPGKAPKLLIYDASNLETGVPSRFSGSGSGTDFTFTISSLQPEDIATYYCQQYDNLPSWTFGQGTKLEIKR
B9: HK CVX2-106 (antibody, V domains shown)
VH: QVQLVQSGAEVKKPGSSVKVSCKASGGTFSSYAISWVRQAPGQGLEWMGGIIPIFGTANYAQKFQGRVTITADESTSTAYMELSSLRSEDTAVYYCATRKETTVTTSLVYGMDVWGQGTTVTVSS
VL: not shown
B10: HL CV07-270 (antibody, V domains shown)
VH: QVQLVESGGGLVKPGGSLRLSCAASGFTFSDYYMTWIRQAPGKGLEWVSYISSSGSTIYYADSVKGRFTISRDNAKNSLYLQMNSLRAEDTAVYYCARARGSSGWYRIGTRWGNWFDPWGQGTLVTVSS
VL: QSALTQPASVSGSPGQSITISCTGTSSDVGGYNYVSWYQQHPGKAPKLMIYEVSNRPSGVSNRFSGSKSGNTASLTISGLQAEDEADYYCSSYTSSSNVVFGGGTMLTVLG
B11: HL CV07-283 (antibody, V domains shown)
VH: QVQLVQSGAEVKKPGASAKVSCKASGYTFTGYYIHWVRQAPGQGLEWMGLINPISGGTNYAQKFQDRVTMTRDTSISTAYMELSRLRSDDTAVYYCVRGPFYYDSSGPLGGMDVWGQGTTVTVSS
VL: QSALTQPASVSGSPGQSITISCTGTSGDVGGYNYVSWYQQHPGKAPKLMIYEVSNRPSGVSNRFSGSKSGNTASLTISGLQAEDEADYYCSSYTSSSTYVFGTGTKVTVLG
B12: HL CV07-250 (antibody, V domains shown)
VH: QVQLVQSEAEVKEPGASVEVSCKASGYNFTNFAISWVRQAPGQGLEWMGWISGYNGDTNSAQKFLGRVTMTTDTSTTTAYMELRSLRSDDTAVYYCAGSDNYGFPYNGMDVWGQGTTVTVSS
VL: QSALTQPPSASGSPGQSVTISCTGTSSDLGAYHFVTWYQHYPGKAPKVMIYGVRKRPSGVPDRFSGSKSGNTASLTVSGLQDEDEADYYCSSYAGNNDFVFGGGTKLTVLS
B13: HL CV07-315 (antibody, V domains shown)
VH: EVQLVESGGGLVQPGRSLRLSCAASGFTFDDYAMHWVRQAPGKGLEWVSGISWNSGSIGYADSVKGRFTISRDNAKNSLYLQMNSLRAEDTALYYCAKDFLWDLHPPRYYGMDVWGQGTTVTVSS
VL: QSVLTRPPSVSAAPGQKVTISCSGSSSNIGNNYVSWYQQLPGTAPKLLIYENNKRPSGIPDRFSGSKSGTSATLGITGLQTGDEADYYCGTWDSSLNGVFGGGTKLTVLG
B14: HK CVX1-126 (antibody, V domains shown)
VH: EVQLVESGGGLVQPGGSLRLSCAASGLTVSSNYMSWVRQAPGKGLEWVSVIYSGGSTYYADSVKGRFTISRHNSKNTLYLQMNSVRAEDTAVYYCARDLSEGGMDVWGQGTTVTVSS
VL: DIQMTQSPSSVSASVGDRVTITCRASQGISSWLAWYQQKPGKAPKLLIYAASTLQSGVPSRFSGSGSGTDFTLTISSLQPEDFATYYCQQANGFPPLFGGGTKVEIKR

The target of the assay is SARS-CoV-2 Spike RBD-Fc (SARS-CoV-2). As to the kind of experiment: ELISA, RBD-Fc captured via anti-rabbit IgG, concentration-dependent binding.
As a reminder, the EC50 is the concentration at which the effect is half-maximal. Higher therefore signals a need for much substance. In the case of B1, it took 4.1 ng/mL to reach a half-maximal effect (EC50). The same measure for B2: 5.5 ng/mL; for B3: 6.4 ng/mL. B4 registered an EC50 of 5.9 ng/mL.

B5 displayed an EC50 of 4.8 ng/mL. On to B6, for which the EC50 was 12.1 ng/mL. The same measure for B7: 8.9 ng/mL; for B8: 5.2 ng/mL; for B9: 5.6 ng/mL. Molecule B10 gave an EC50 of 14.2 ng/mL.

B11 came in with an EC50 of 4 ng/mL.

Turning to B12, it took 8.7 ng/mL to reach a half-maximal effect (EC50). Molecule B13 had an EC50 of 7.2 ng/mL.

Regarding B14, the 50% effective concentration (EC50) worked out at 5.5 ng/mL.

The values above are taken from patent US20240376180A1 (DEUTSCHES ZENTRUM FUR NEURODEGENERATIVE ERKRANKUNGEN E V …, published 2024).
